Patent US20100092455A1 (PIERRE FABRE MEDICAMENT, published 2010)

Legend:
[1] = target: T1, recombinant human JAM-A/Fc (R&D Systems ref. 1103-JM) (human, UniProt Q9Y624 28-238); assay: SPR (BIAcore X), KD=kd/ka
T1 construct: also called hJAM-A/Fc; Human JAM-1-Fc
T1 sequence: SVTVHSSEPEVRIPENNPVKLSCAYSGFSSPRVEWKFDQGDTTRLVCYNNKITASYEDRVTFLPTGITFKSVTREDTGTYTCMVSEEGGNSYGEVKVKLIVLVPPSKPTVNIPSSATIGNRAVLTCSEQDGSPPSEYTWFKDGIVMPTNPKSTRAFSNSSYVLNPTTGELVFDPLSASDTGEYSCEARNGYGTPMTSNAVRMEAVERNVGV
Procedure: (§1) FIG. 14 is sensorgrams obtained with a double reference, (Fc2-Fc1)6F4(Fc2-Fc1)HBS-EP. The curve is fitted using a Langmuir A+B binding model.
(§2) Murine monoclonal 6F4 antibody: 1.3 mg/ml [0351] […] Running buffer: HBS-EP (BIAcore) [0354] Binding kit: “Amine” (BIAcore) [0355] Binding buffer: Acetate pH 5.0 (BIAcore) [0356] Capturing antibody: goat IgG Fc anti-human (=GAH, goat anti-human) (Bioscience) [0357] Regeneration buffer: Glycine, HCl pH 1.5 for 30 seconds (BIAcore).

[2] = target: T2, natural human JAM-A protein (F11R / junctional adhesion molecule A), isoform a (human, UniProt Q9Y624 28-299); assay: flow cytometry, labeling of MCF-7 cells with 6F4
T2 construct: Natural protein; Mass spectrometry matched it to JAM-A isoform a; also called F11 receptor; JAM-1
T2 sequence: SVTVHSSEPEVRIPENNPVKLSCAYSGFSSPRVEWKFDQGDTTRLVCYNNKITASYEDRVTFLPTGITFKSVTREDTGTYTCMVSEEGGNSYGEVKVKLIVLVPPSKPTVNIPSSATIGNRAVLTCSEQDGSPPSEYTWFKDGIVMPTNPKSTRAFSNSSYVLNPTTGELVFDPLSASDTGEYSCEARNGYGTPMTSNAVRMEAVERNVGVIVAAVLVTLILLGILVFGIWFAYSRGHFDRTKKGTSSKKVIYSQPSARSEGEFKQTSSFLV

[3] = target: T1, recombinant human JAM-A/Fc (R&D Systems …); assay: SPR (BIAcore X), double reference, Langmuir A+B binding model, 25° C.
Procedure: as §1, §2

[4] = target: T3, recombinant human JAM-B/Fc (R&D Systems ref. 1074-VJ) (human, UniProt P57087 29-236, limits assumed); assay: western blot, non-reducing, revealed with 6F4; 250, 25 and 10 ng deposited
T3 construct: Bought product; also called hJAM-B/Fc; human form of JAM-B; not shown: Fc part of the bought fusion protein
T3 sequence (looked up): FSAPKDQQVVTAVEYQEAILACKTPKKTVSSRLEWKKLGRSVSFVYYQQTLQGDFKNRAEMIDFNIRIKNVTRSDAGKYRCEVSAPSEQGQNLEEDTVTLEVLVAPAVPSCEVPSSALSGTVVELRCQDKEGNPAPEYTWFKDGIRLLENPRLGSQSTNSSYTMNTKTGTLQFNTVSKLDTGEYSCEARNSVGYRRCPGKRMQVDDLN

[5] = target: T4, recombinant human JAM-C/Fc (R&D Systems ref. 1189-J3) (human, UniProt Q9BX67 32-241, limits assumed); assay: as above
T4 construct: Bought product; also called hJAM-C/Fc; human form of JAM-C; not shown: Fc part of the bought fusion protein
T4 sequence (looked up): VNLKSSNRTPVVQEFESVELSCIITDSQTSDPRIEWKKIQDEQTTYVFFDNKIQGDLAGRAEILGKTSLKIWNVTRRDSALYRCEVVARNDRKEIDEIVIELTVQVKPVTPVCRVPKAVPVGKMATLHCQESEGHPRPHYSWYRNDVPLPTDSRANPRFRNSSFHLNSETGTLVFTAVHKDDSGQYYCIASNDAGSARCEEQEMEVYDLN

[6] = target: T5, recombinant murine JAM-A/Fc (R&D Systems ref. 1077-JM) (murine, UniProt O88792 27-238); assay: as above
T5 construct: extracellular domain; Bought product; also called mJAM-A/Fc; Mouse JAM-1-Fc; not shown: Fc part of the bought fusion protein
T5 sequence (looked up): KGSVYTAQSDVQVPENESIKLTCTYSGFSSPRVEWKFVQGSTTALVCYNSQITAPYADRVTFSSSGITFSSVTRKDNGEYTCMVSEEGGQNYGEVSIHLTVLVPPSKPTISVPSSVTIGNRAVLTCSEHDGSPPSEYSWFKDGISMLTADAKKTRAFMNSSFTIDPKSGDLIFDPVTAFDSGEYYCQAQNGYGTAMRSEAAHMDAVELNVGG

B1: murine monoclonal 6F4 antibody (antibody, V domains shown)
VH: EIQLQQSGPELVKPGASVKVSCKASGYSFTDYSMYWVKQSHGKSLEWIGYIDPYNGGTRYNQKFKGKATLTVDKSSSTAFMHLNSLTSEDSAVYYCARQTDYFDYWGQGTTLTVSS
VL: DIQMTQSPSSLSASLGGKVTITCKASQDINNYIAWYQHKPGKGPRLLIHYTSTLQAGIPSRFSGSGSGRDYSFSISNLEPEDIGTYYCLQYDNLWTFGGGTKLEIKR
notes: also called 6F4 MAb; Mab 6F4; copies: 2 + 2
Kd [1]: 0.022 nM
EC50 (read off the curve) [2]: ~0.3 µg/mL
koff [3]: 2.5e-07 s⁻¹
kon [3]: 138000 M⁻¹ s⁻¹
binding result [4]: no binding (tested: 250 ng)
binding result [5]: no binding (tested: 250 ng)
binding result [6]: no binding (tested: 250 ng)
